Biological target: human dipeptidyl peptidase 4 (DPP4) expressed by cells (human) (UniProt P27487)
Experiment: cell-based or functional assay

Sequence of UniProt P27487 (P27487 whole entry): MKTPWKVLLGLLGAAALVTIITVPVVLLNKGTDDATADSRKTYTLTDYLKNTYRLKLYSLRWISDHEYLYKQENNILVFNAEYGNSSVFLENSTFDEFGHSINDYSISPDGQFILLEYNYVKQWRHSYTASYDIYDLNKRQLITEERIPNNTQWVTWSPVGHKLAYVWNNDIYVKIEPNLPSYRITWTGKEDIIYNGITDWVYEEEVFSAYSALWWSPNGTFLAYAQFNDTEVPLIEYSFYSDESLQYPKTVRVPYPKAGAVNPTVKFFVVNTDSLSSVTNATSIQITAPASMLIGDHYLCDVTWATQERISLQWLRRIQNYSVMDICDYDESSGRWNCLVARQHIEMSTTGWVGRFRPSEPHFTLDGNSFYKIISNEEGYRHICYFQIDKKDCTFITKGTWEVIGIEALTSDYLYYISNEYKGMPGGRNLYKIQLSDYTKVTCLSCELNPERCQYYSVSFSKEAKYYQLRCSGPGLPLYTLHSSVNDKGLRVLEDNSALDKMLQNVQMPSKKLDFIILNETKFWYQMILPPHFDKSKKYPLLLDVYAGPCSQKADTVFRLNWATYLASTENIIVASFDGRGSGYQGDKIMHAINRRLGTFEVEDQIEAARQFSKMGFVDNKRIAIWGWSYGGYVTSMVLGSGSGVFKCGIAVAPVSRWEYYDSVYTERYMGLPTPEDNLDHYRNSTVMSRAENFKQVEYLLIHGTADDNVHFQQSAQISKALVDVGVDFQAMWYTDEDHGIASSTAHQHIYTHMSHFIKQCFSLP

Q: For “S377-588-Fc (residues 377-588 of MERS-CoV S protein fused to Fc of human IgG) (Fc fusion)”, which inhibition of CPE formation caused by MERS-CoV infection in Calu-3 cells is on record?
A: 3 µg/mL
